Results on nine molecules are retold here after patent publication US20220119825A1, “SCALABLE PEPTIDE-GPCR INT[…] SYSTEMS” (THE TRUSTEES OF COLUMBIA UNIVERSITY IN THE CITY OF NEW YORK, priority 2019, published 2022).

What all share (assay): cell-based or functional assay
Experiment [1] addresses T1, Cau.Ste2, Ste2-like mating GPCR of Candida auris (Candida auris).
T1 chain: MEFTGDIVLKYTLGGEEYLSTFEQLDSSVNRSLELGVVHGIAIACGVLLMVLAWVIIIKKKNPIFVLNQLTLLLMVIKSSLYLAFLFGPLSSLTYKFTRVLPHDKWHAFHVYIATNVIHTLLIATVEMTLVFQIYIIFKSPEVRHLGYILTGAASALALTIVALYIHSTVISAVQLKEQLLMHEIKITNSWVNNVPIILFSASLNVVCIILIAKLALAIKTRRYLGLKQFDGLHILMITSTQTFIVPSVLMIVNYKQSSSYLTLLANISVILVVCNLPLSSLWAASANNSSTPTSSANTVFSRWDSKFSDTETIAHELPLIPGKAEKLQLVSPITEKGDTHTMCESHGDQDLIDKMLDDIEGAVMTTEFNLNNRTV

The target of experiment [2] is T2, Vp1.Ste2, Ste2-like mating GPCR of Vanderwaltozyma polyspora1 (Vanderwaltozyma polyspora).
T2 chain: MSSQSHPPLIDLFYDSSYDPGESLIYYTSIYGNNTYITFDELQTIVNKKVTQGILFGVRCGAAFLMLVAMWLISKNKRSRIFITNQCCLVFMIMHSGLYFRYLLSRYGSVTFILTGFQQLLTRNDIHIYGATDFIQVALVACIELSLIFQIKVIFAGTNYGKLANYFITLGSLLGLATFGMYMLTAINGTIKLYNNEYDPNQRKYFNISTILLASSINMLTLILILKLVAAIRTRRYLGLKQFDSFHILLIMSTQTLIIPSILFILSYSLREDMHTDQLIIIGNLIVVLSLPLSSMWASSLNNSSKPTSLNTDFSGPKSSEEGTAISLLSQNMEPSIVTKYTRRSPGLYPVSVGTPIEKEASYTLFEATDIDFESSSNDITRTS

Experiment [3] concerns the target T3, Vp2.Ste2, Ste2-like mating GPCR of Vanderwaltozyma polyspora2 (Vanderwaltozyma polyspora).
T3 chain: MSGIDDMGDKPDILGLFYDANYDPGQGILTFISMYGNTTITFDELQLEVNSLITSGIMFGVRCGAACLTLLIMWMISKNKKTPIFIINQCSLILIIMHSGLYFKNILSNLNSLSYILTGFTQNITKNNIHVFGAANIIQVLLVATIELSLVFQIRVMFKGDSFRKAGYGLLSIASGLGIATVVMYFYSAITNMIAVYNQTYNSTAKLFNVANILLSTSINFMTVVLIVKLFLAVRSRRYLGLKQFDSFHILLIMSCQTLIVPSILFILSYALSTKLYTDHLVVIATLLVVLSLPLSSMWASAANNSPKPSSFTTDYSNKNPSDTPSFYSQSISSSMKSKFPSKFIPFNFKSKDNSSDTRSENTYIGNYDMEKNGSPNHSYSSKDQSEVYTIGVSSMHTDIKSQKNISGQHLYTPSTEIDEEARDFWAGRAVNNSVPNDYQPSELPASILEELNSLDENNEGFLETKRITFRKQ

In experiment [4] the target is T4, Zr.Ste2, Ste2-like mating GPCR of Zygosaccharomyces rouxii (Zygosaccharomyces rouxii).
T4 chain: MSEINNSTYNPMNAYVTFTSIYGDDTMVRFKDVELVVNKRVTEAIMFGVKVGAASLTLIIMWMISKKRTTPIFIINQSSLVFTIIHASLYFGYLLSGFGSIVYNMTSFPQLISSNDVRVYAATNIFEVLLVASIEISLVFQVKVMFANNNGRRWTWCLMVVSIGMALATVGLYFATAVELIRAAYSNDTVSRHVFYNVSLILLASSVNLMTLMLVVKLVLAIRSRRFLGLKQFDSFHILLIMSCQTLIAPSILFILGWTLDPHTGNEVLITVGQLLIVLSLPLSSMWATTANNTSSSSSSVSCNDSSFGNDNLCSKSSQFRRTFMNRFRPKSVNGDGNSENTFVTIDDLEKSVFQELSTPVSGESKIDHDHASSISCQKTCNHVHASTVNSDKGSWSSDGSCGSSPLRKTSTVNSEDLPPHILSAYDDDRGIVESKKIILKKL

Experiment [5] has as its target T5, Cl.Ste2, Ste2-like mating GPCR of Candida (Clavispora) lusitaniae (Candida (Clavispora) lusitaniae).
T5 chain: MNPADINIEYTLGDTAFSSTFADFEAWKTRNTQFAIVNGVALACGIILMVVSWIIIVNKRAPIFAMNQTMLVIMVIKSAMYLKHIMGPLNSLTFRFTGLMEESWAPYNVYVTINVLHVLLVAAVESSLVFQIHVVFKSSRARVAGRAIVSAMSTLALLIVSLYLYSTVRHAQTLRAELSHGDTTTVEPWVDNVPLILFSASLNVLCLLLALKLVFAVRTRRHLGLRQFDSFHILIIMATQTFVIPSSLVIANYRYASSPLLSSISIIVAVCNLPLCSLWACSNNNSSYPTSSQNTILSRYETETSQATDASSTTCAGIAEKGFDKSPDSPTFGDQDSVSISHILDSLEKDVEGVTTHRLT

The target in experiment [6] is T6, Cgu.Ste2, Ste2-like mating GPCR of Candida (Pichia) guilliermondii (Candida (Pichia) guilliermondii).
T6 chain: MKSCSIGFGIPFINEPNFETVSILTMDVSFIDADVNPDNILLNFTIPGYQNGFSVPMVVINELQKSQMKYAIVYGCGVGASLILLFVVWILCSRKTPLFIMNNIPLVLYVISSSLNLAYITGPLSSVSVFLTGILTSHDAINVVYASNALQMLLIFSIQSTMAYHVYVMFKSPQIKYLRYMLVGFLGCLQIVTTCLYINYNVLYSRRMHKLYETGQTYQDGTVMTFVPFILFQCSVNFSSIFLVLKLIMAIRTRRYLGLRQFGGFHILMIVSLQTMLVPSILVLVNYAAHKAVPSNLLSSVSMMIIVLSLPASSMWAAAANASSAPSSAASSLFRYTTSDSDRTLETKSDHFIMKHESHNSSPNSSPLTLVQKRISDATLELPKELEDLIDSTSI

Experiment [7] has as its target T7, Zb.Ste2, Ste2-like mating GPCR of Zygosaccharomyces bailii (Zygosaccharomyces bailii).
T7 chain: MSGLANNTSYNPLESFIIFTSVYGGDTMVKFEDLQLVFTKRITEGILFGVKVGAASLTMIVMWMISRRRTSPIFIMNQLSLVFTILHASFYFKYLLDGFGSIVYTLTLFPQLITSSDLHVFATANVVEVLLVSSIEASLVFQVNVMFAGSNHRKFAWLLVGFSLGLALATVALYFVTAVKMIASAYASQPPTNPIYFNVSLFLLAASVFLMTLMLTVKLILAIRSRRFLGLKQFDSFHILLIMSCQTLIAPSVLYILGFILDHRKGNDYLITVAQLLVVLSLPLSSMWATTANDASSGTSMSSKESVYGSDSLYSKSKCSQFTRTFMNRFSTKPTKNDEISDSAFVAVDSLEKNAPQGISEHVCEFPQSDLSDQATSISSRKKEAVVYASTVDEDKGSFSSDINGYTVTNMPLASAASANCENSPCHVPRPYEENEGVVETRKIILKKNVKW

For experiment [8], the target named is T8, Ca.Ste2, Ste2-like mating GPCR of Candida albicans (Candida albicans).
T8 chain: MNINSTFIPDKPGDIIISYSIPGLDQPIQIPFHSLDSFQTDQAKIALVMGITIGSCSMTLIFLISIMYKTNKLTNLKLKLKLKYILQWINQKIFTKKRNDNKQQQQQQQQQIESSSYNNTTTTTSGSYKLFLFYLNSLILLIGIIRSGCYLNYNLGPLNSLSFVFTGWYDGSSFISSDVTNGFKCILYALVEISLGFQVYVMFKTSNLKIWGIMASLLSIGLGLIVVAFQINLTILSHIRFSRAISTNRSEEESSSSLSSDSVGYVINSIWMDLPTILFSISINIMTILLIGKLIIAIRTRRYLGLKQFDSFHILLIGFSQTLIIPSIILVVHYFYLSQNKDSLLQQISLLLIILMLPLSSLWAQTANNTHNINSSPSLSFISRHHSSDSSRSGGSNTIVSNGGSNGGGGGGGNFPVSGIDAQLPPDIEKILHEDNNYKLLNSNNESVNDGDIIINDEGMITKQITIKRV

Experiment [9] concerns the target T9, Cg.Ste2, Ste2-like mating GPCR of Candida glabrata (Candida glabrata).
T9 chain: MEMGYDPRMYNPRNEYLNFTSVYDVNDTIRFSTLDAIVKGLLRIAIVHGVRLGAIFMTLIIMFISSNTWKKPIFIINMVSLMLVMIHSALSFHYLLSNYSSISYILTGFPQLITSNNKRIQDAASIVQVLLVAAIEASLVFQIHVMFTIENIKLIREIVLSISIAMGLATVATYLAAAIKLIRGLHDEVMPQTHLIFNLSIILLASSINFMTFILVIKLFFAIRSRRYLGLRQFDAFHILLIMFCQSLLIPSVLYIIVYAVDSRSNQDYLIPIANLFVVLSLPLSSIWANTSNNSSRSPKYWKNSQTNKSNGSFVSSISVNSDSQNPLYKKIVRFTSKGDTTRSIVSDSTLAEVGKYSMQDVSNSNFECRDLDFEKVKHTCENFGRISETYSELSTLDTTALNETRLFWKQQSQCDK

As to KWGWLRFFPGEPFV [Cau peptide ligand #1 KWGWLRFFPGEPFV], in [1], the “Bttm (FUS1p-RFP reporter)” value was 50.6 fluorescence/A600 (not printed), the “EC50 (FUS1p-RFP reporter)” value is -8.1 log10 M (not printed), the “Fold Change (FUS1p-RFP reporter)” value came out at 6.7 fold and the “Span (FUS1p-RFP reporter)” value is 286 fluorescence/A600 (not printed). Moreover, the “Top (FUS1p-RFP reporter)” value in [1] is 337 fluorescence/A600 (not printed).
Regarding WHWLELDNGQPIY [Vp1 peptide ligand #1 WHWLELDNGQPIY], in experiment [2], the “Bttm (FUS1p-RFP reporter)” value is 28.8 fluorescence/A600 (not printed), the “EC50 (FUS1p-RFP reporter)” value was -8.6 log10 M (not printed), the “Fold Change (FUS1p-RFP reporter)” value is 8.4 fold and the “Span (FUS1p-RFP reporter)” value was 214 fluorescence/A600 (not printed). Moreover, the “Top (FUS1p-RFP reporter)” value in experiment [2] was 243 fluorescence/A600 (not printed).
As for WHWLRLRYGEPIY [Vp2 peptide ligand #1 WHWLRLRYGEPIY], in [3], the “Bttm (FUS1p-RFP reporter)” value was 28 fluorescence/A600 (not printed), the “EC50 (FUS1p-RFP reporter)” value is -7.7 log10 M (not printed), the “Fold Change (FUS1p-RFP reporter)” value was found to be 7.7 fold and the “Span (FUS1p-RFP reporter)” value is 187 fluorescence/A600 (not printed). The “Top (FUS1p-RFP reporter)” value in [3] was 215 fluorescence/A600 (not printed).
As to HFIELDPGQPMF [Zr peptide ligand #1 (Table 3: …)], in experiment [4], the “Bttm (FUS1p-RFP reporter)” value was 57.2 fluorescence/A600 (not printed), the “EC50 (FUS1p-RFP reporter)” value was -7.4 log10 M (not printed), the “Fold Change (FUS1p-RFP reporter)” value worked out at 1.9 fold and the “Span (FUS1p-RFP reporter)” value was 52.7 fluorescence/A600 (not printed). Besides, in [4], the “Top (FUS1p-RFP reporter)” value is 110 fluorescence/A600 (not printed).
As to KWKWIKFRNTDVIG [Cl peptide ligand #1 KWKWIKFRNTDVIG], in experiment [5], the “Bttm (FUS1p-RFP reporter)” value was 39.8 fluorescence/A600 (not printed), the “EC50 (FUS1p-RFP reporter)” value was -7.5 log10 M (not printed), the “Fold Change (FUS1p-RFP reporter)” value is 1.4 fold and the “Span (FUS1p-RFP reporter)” value was 186 fluorescence/A600 (not printed). Also, the “Top (FUS1p-RFP reporter)” value in experiment [5] was 226 fluorescence/A600 (not printed).
With KKNSRFLTYWFFQPIM [Cgu peptide ligand #1 KKNSRFLTYWFFQPIM], in [6], the “Bttm (FUS1p-RFP reporter)” value is 41.2 fluorescence/A600 (not printed), the “EC50 (FUS1p-RFP reporter)” value is -7.4 log10 M (not printed), the “Fold Change (FUS1p-RFP reporter)” value was 5.1 fold and the “Span (FUS1p-RFP reporter)” value was 170 fluorescence/A600 (not printed). Moreover, in [6], the “Top (FUS1p-RFP reporter)” value is 212 fluorescence/A600 (not printed).
Turning to HLVRLSPGAAMF [Zb peptide ligand #1 HLVRLSPGAAMF], in [7], the “Bttm (FUS1p-RFP reporter)” value was 39.1 fluorescence/A600 (not printed), the “EC50 (FUS1p-RFP reporter)” value is -5.8 log10 M (not printed), the “Fold Change (FUS1p-RFP reporter)” value was 7.5 fold and the “Span (FUS1p-RFP reporter)” value is 253 fluorescence/A600 (not printed). The “Top (FUS1p-RFP reporter)” value in [7] was 292 fluorescence/A600 (not printed).
Turning to GFRLTNFGYFEPG [Ca peptide ligand #1 GFRLTNFGYFEPG], in [8], the “Bttm (FUS1p-RFP reporter)” value is 38.9 fluorescence/A600 (not printed), the “EC50 (FUS1p-RFP reporter)” value was -7.7 log10 M (not printed), the “Fold Change (FUS1p-RFP reporter)” value is 7 fold and the “Span (FUS1p-RFP reporter)” value was 233 fluorescence/A600 (not printed). Further, the “Top (FUS1p-RFP reporter)” value in [8] is 272 fluorescence/A600 (not printed).
As for WHWVRLRKGQGLF [Cg peptide ligand #1 WHWVRLRKGQGLF], in experiment [9], the “Bttm (FUS1p-RFP reporter)” value is 30.5 fluorescence/A600 (not printed), the “EC50 (FUS1p-RFP reporter)” value is -5.9 log10 M (not printed), the “Fold Change (FUS1p-RFP reporter)” value was found to be 7 fold and the “Span (FUS1p-RFP reporter)” value is 183 fluorescence/A600 (not printed). The “Top (FUS1p-RFP reporter)” value in experiment [9] is 214 fluorescence/A600 (not printed).
